Consider eight molecules from patent EP4628892A1 (Korea Research Institute of Bioscience and Biotechnology, dated 2025).

Changes are numbered by the printed parent chain.

First the molecules themselves.
B1: H6HE2L antibody (antibody, human IgG1, kappa, V domains shown)
VH: QMQLVQSGGGLEQPGRSLRLSCVTSGFNFNDYAMHWVRQAPGKGLEWVSGISWNSGAIGYADSVKGRFTVSRDNSKNSLYLQMNSLRAEDTAVYYCARDYNYETSGYYHGFDNWGQGTLVTVSS
VL: DIQMTQSPSSVSASVGDRVTITCRASQGISRWLSWYQQKPGKAPKLLIYAASNLQSGVPLRFSGSGSGTDFTLTINSLQPEDSATYYCQQTNNFPYTFGQGTKVEIKR
notes: Optimized from CSA108
B2: CSA123 antibody (antibody, human IgG1, kappa, V domains shown)
VH: QMQLVQSGAEVKKPGASVKVSCKVSGYTLSELSIHWVRQAPGKGLEWMGGFDPEDDETVYAQKFQGRVTLTDDTSTDTAYMELSSLRSEDTAVYYCARDLGYLTSGNYYDAFDIWGRGTMITVSS
VL: B1 VL with G28D, S30N, S34A, N53R, Y96R, K103R, V104L
notes: also called anti-NgR1 antibody CSA123
B3: C1HE2E6 antibody (antibody, human IgG1, kappa, V domains shown)
VH: B1 VH with T104I, H109Y
VL: B1 VL with S67F
notes: Optimized from CSA108
B4: CSA108 antibody (antibody, human IgG1, kappa, V domains shown)
VH: B1 VH with N101Y, H109Y
VL: B1 VL with S34A
notes: also called anti-NgR1 antibody CSA108
B5: G8 antibody (antibody, human IgG1, kappa, V domains shown)
VH: B2 VH with T28P, P53S, D113G
VL: B1 VL with G28D, S30N, S34A, N53R, Y96R, K103R, V104L
notes: Optimized from CSA123
B6: D11 antibody (antibody, human IgG1, kappa, V domains shown)
VH: B2 VH with P53S, I114F
VL: B1 VL with G28D, S30N, S34A, N53R, Y96R, K103R, V104L
notes: Optimized from CSA123
B7: S3 antibody (antibody, human IgG1, kappa, V domains shown)
VH: B2 VH with D110N, D113G
VL: B1 VL with G28D, S30N, S34A, N53R, Y96R, K103R, V104L
notes: Optimized from CSA123
B8: S6 antibody (antibody, human IgG1, kappa, V domains shown)
VH: B2 VH with E31G, P53S
VL: B1 VL with G28D, S30N, S34A, N53R, Y96R, K103R, V104L
notes: Optimized from CSA123

The target in the test is T1, hNgR1-his (human, UniProt Q9BZR6 27-447, limits assumed).
T1 construct: Soluble antigen flowed over antibodies captured on Protein A chips; also called antigen protein (hNgR1-his); the antigen; not shown: histidine tag
T1 sequence (looked up): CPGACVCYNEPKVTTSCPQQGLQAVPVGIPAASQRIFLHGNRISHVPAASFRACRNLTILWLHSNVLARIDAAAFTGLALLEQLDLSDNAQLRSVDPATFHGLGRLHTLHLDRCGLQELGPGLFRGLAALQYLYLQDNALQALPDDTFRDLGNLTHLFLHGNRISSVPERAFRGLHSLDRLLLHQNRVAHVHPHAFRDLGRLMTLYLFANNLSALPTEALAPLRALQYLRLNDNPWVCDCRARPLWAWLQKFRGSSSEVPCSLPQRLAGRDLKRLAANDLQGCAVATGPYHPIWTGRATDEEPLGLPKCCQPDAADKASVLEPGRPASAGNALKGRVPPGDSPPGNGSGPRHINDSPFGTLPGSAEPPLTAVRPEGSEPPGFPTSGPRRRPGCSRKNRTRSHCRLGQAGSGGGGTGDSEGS
Description: SPR, Biacore T200; IgG1 captured on Protein A chip, hNgR1-his flowed at different concentrations. A general note: Surface plasmon resonance follows binding to a sensor surface in real time, without labels.
The Kd is the constant that tells how readily two partners part at equilibrium. For B1, binding was put at a Kd of 1.69 nM.

Turning to B2, binding was characterised by a dissociation constant (Kd) of 31.5 nM.

B3 displayed a Kd of 0.194 nM.

B4 registered a Kd of 23.3 nM.

On to B5, for which the Kd turned out to be 4.15 nM.

As for B6, binding was characterised by a dissociation constant (Kd) of 5.33 nM.

In turn, B7 registered an equilibrium dissociation constant (Kd) of 5.84 nM.

B8 yielded a Kd of 5.51 nM.
